We go through 52 molecules from PMC4072508, “Genome-Wide Prediction and Validation of Peptides That Bind Human Prosurvival Bcl-2 Proteins” (PLoS Computational Biology, 2014).

B1: KLHL15 (peptide)
chain: AGDVEGFCSSIHDTSVSAGFRALYEE
B2: RP1L1 (peptide)
chain: HRNTRNLAAFLGKALDLLRFPVKQLY
B3: MED17 (peptide)
chain: ELLRLRQHWKDRKVGDKILGDLSYRS
B4: MED17 (peptide)
chain: ELLRLRQHWKLRKVLDKILGDLSYRS
B5: SLC28A1 (peptide)
chain: SISLTPVAKGLENMGADFLESLEEGQ
B6: FOLH1 (peptide)
chain: PFDCRDYAVVLRKYLDKIYSISMKHP
B7: ZNFX1 (peptide)
chain: HERCQQPCKRLLICSHKCQEPCIGEC
B8: ABCA13 (peptide)
chain: VDKLKTLSETLLEMSSLFQRSGSGQM
B9: NUB1 (peptide)
chain: TDENKKVGLADKDLAKQYSDRLECCE
B10: PPIL6 (peptide)
chain: NGQFLGDALDLQKWAHEVWDIVDIKP
B11: USP36 (peptide)
chain: AIKPVSFIRDLKKILRHFRFGNQEDA
B12: TDRD6 (peptide)
chain: HCQLRSVSQEIHRLSESMAQVYRGST
B13: METAP2 (peptide)
chain: GMTMIEICEKLEDCSRKLIKENGLNA
B14: PCIF1 (peptide)
chain: KDSVEGICSKIYHISLEYVKRIREKH
B15: RIMBP3 (peptide)
chain: RAELTGLARRDADRARKLQETNLRAV
B16: NPLOC4 (peptide)
chain: ATKRETAATFLKKVLKEFGFQNNGFS
B17: ASB10 (peptide)
chain: GPGTLECAELLLRFGARVDGRSEEEE
B18: APOL6 (peptide)
chain: KEDLKGNIDKLRALADDIDKTHKKFT
B19: MAST1 (peptide)
chain: DGVLSFIHHQIIELARDCLTKSRDGL
B20: ANKRD32 (peptide)
chain: ESEVQHLSQKLYDWSDSQNLKITGKA
B21: ANKRD11 (peptide)
chain: NRGYYDVAKQLLAAGAEVNTKGLDDD
B22: RANBP10 (peptide)
chain: TERIILFGRELQALSEQLGREYGKNL
B23: C4orf22 (peptide)
chain: DFEARKAAIEIARLAERAQQKTLTSA
B24: RP1L1 (peptide)
chain: HRNTRNLAAFDGKASDLLRFPVKQLY
B25: RIMBP3 (peptide)
chain: RAELTGLARRLADRLRKLQETNLRAV
B26: C6orf223 (peptide)
chain: RGRTRGWVQTLARMLRRTRGPVERAA
B27: FEM1A (peptide)
chain: YKGHREIARYLLEQLAQVNRRSAKGN
B28: TNKS (peptide)
chain: HPKRKQVTELLLRKLANVNEKNKDFM
B29: TRPM7 (peptide)
chain: FERVEQMCIQDKEVGDRVNYIKRSLQ
B30: JAKMIP2 (peptide)
chain: DVNIPDLIKQLDILGDNGNLRNEEQV
B31: MYO15A (peptide)
chain: YGRLRPRARSDSKASTAINWLTKKFL
B32: PLEKHG4 (peptide)
chain: IQRMGKYALLLQELARACGGPTQELS
B33: GRIP1 (peptide)
chain: KFRHDEIISLLKNVGERVVLEVEYEL
B34: PION (peptide)
chain: DISLSNSGFKLVNFLCDYHQYRDKFS
B35: MYH6 (peptide)
chain: KANLEKVSRTLEDQANEYRVKLEEAQ
B36: C8orf37 (peptide)
chain: TNISWRACDHDRCIACDFLVVSYDDY
B37: LYZ (peptide)
chain: VFERCELARTDKRLGMDGYRGISLAN
B38: EPS8 (peptide)
chain: LDDIEFFITKLQKAAEAFSELSKRKK
B39: ARHGAP4 (peptide)
chain: EVLAGPLAQRDSHIAEDVGRLVKKSR
B40: RP1L1 (peptide)
chain: HRNTRNLAAFLGKASDLLRFPVKQLY
B41: ACAP3 (peptide)
chain: LGRTGQVCLFLKRGLDQHALDQEQRD
B42: DNAH1 (peptide)
chain: EMNLQDHIESISKVAEVAGKEYAIEQ
B43: IQGAP3 (peptide)
chain: YGKVKFTAEELSNMASELAKYGLQLP
B44: RIMBP3 (peptide)
chain: RAELTGLARRLADRARKLQETNLRAV
B45: TLR6 (peptide)
chain: TCELREFVKNIDQVSSEVLEGWPDSY
B46: KIAA0430 (peptide)
chain: NKDGKSVSNRLRRLLDNCGGKVLSIT
B47: INCA1 (peptide)
chain: DQEEACASRQLHSLLSFSTVTARRNP
B48: TUBB4Q (peptide)
chain: FTGNNTAVQELKRVLEQFTATFRRKA
B49: TNKS (peptide)
chain: HPKRKQVTELDLRKGANVNEKNKDFM
B50: SH3GL1 (peptide)
chain: LDYHRQAVQILDELAEKLKRRMREAS
B51: USP36 (peptide)
chain: HRTSNVLTLSLKRFLNFSGGKITKDV
B52: EVI5 (peptide)
chain: PHQFDGVPDKLIQALYQVKYNSKKMK

The target in the test is Bcl-xL, Q07817. The experiment in a line: peptide SPOT array, c-Myc-tagged receptor at 1 uM or 100 nM, anti-c-Myc-Cy3.
Sequence of Bcl-xL, Q07817 (Q07817 1-209): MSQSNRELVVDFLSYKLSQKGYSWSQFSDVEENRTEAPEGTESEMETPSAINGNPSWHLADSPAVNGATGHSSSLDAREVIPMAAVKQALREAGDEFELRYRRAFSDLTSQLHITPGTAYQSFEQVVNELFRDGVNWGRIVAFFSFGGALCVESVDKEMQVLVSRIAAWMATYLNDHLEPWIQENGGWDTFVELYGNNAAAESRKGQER
Molecule B1 gave an SPOT signal as a fraction of Bim BH3's signal on the same receptor and array of 0.02.

B2 showed an SPOT signal as a fraction of Bim BH3's signal on the same receptor and array of 0.47.

B3 registered an SPOT signal as a fraction of Bim BH3's signal on the same receptor and array of 1.2.

Regarding B4, the SPOT signal as a fraction of Bim BH3's signal on the same receptor and array was determined as 0.46.

B5 displayed an SPOT signal as a fraction of Bim BH3's signal on the same receptor and array of 0.02.

In the case of B6, the SPOT signal as a fraction of Bim BH3's signal on the same receptor and array came to 0.44.

B7 came in with an SPOT signal as a fraction of Bim BH3's signal on the same receptor and array of 0.03.

For B8, the SPOT signal as a fraction of Bim BH3's signal on the same receptor and array amounted to 0.03.

In turn, B9 had an SPOT signal as a fraction of Bim BH3's signal on the same receptor and array of 0.02.

As to B10, the SPOT signal as a fraction of Bim BH3's signal on the same receptor and array was found to be 0.03.

B11 had an SPOT signal as a fraction of Bim BH3's signal on the same receptor and array of 0.42.

As for B12, the SPOT signal as a fraction of Bim BH3's signal on the same receptor and array was 0.04.

The molecule B13 registered an SPOT signal as a fraction of Bim BH3's signal on the same receptor and array of 0.03.

Turning to B14, the SPOT signal as a fraction of Bim BH3's signal on the same receptor and array is 0.08.

Consider B15, for which the SPOT signal as a fraction of Bim BH3's signal on the same receptor and array was determined as 0.51.

Molecule B16 returned an SPOT signal as a fraction of Bim BH3's signal on the same receptor and array of 0.48.

Molecule B17 displayed an SPOT signal as a fraction of Bim BH3's signal on the same receptor and array of 0.03.

The molecule B18 gave an SPOT signal as a fraction of Bim BH3's signal on the same receptor and array of 0.17.

For B19, the SPOT signal as a fraction of Bim BH3's signal on the same receptor and array came out at 0.03.

Molecule B20 gave an SPOT signal as a fraction of Bim BH3's signal on the same receptor and array of 0.03.

B21 had an SPOT signal as a fraction of Bim BH3's signal on the same receptor and array of 0.03.

As to B22, the SPOT signal as a fraction of Bim BH3's signal on the same receptor and array amounted to 0.03.

The molecule B23 yielded an SPOT signal as a fraction of Bim BH3's signal on the same receptor and array of 0.04.

In the case of B24, the SPOT signal as a fraction of Bim BH3's signal on the same receptor and array is 1.4.

Regarding B25, the SPOT signal as a fraction of Bim BH3's signal on the same receptor and array was found to be 0.39.

In turn, B26 gave an SPOT signal as a fraction of Bim BH3's signal on the same receptor and array of 0.66.

B27 registered an SPOT signal as a fraction of Bim BH3's signal on the same receptor and array of 0.81.

With B28, the SPOT signal as a fraction of Bim BH3's signal on the same receptor and array was determined as 0.43.

B29 showed an SPOT signal as a fraction of Bim BH3's signal on the same receptor and array of 0.03.

For B30, the SPOT signal as a fraction of Bim BH3's signal on the same receptor and array is 0.02.

Molecule B31 returned an SPOT signal as a fraction of Bim BH3's signal on the same receptor and array of 1.49.

On to B32, for which the SPOT signal as a fraction of Bim BH3's signal on the same receptor and array came out at 0.08.

In the case of B33, the SPOT signal as a fraction of Bim BH3's signal on the same receptor and array stood at 0.03.

On to B34, for which the SPOT signal as a fraction of Bim BH3's signal on the same receptor and array worked out at 0.17.

For B35, the SPOT signal as a fraction of Bim BH3's signal on the same receptor and array stood at 0.02.

In turn, B36 came in with an SPOT signal as a fraction of Bim BH3's signal on the same receptor and array of 0.03.

As to B37, the SPOT signal as a fraction of Bim BH3's signal on the same receptor and array was determined as 0.22.

In the case of B38, the SPOT signal as a fraction of Bim BH3's signal on the same receptor and array was 0.13.

As for B39, the SPOT signal as a fraction of Bim BH3's signal on the same receptor and array is 0.04.

B40 displayed an SPOT signal as a fraction of Bim BH3's signal on the same receptor and array of 0.91.

As to B41, the SPOT signal as a fraction of Bim BH3's signal on the same receptor and array worked out at 0.29.

In turn, B42 showed an SPOT signal as a fraction of Bim BH3's signal on the same receptor and array of 0.02.

Take B43: the SPOT signal as a fraction of Bim BH3's signal on the same receptor and array came out at 0.05.

B44 registered an SPOT signal as a fraction of Bim BH3's signal on the same receptor and array of 0.58.

B45 registered an SPOT signal as a fraction of Bim BH3's signal on the same receptor and array of 0.02.

With B46, the SPOT signal as a fraction of Bim BH3's signal on the same receptor and array worked out at 0.33.

On to B47, for which the SPOT signal as a fraction of Bim BH3's signal on the same receptor and array is 0.1.

For the molecule B48, the SPOT signal as a fraction of Bim BH3's signal on the same receptor and array was found to be 0.7.

As for B49, the SPOT signal as a fraction of Bim BH3's signal on the same receptor and array came out at 0.38.

With B50, the SPOT signal as a fraction of Bim BH3's signal on the same receptor and array came out at 0.05.

Consider B51, for which the SPOT signal as a fraction of Bim BH3's signal on the same receptor and array came to 0.35.

B52 had an SPOT signal as a fraction of Bim BH3's signal on the same receptor and array of 0.48.
